# Reference: PMC2921341, “Interaction of Serum- and Glucocorticoid Regulated Kinase 1 (SGK1) with the WW-Domains of Nedd4-2 Is Required for Epithelial Sodium Channel Regulation” (PLoS ONE, 2010)
# T1: SGK PY-motif peptide (human)
# T1 construct: N-terminal cysteine of the printed peptide; stretch of human SGK (SGK1) with the PY motif PPFY (Y298); also called SGK peptide; source: synthetic peptide (Auspep)
# T1 peptide: H-CLYGLPPFYSRNT-NH2
# B1: RNase (enzyme)
# chain: KETAAAKFERQHMDSSTSAASSSNYCNQMMKSRNLTKDRCKPVNTFVHESLADVQAVCSQKNVACKNGQTNCYQSYSTMSITDCRETGSSKYPNCAYKTTQANKHIIVACEGNPYVPVHFDASV
# B2: Nedd4-2 WW2 (isolated WW-domain, GST removed) (domain or fragment)
# chain: not shown
# B3: Nedd4-2 WW2-3 (isolated protein, GST removed) (domain or fragment)
# chain: TTPGLPSGWEERKDAKGRTYYVNHNNRTTTWTRPIMQLAEDGASGSATNSNNHLIEPQIRRPRSLSSPTVTLSAPLEGAKDSPVRRAVKDTLSNPQSPQPSPYNSPKPQHKVTQSFLPPGWEMRIAPNGRPFFIDHNTKTTTWEDPRLKFPVHM
# B4: Nedd4-2 WW1 (isolated WW-domain, GST removed) (domain or fragment)
# chain: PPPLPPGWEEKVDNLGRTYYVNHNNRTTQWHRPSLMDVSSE
# B5: Nedd4 WW3 (isolated WW-domain, GST removed) (domain or fragment, UniProt P46934 840-873, looked up)
# chain: GFLPKGWEVRHAPNGRPFFIDHNTKTTTWEDPRL
# notes: Nedd4 WW-domain 3 (a Nedd4 with four WW-domains); also called WW-domain 3 of Nedd4; source: E. coli BL21, GST removed with thrombin or TEV protease, purified (glutathione-Sepharose, Superdex-75)
# Molecular target: T1, SGK PY-motif peptide
# Test: SPR; BIAcore 2000; peptide immobilised on Sensor Chip CM5 by amine chemistry; isolated WW-domains injected at 20 µl/min in HBS-EP; KD estimated from steady state equilibrium responses
# Conditions: both partners purified
row,Kd,Binder
1,> 600 µM,B1
2,> 600 µM,"DLGPLPPGWEERIHLDGRTFYIDHNSKITQWEDPRLQNPAIT (domain or fragment) [Nedd4-2 WW4 (isolated WW-domain, GST removed)]"
3,105 µM,B2
4,53.3 µM,B3
5,> 600 µM,B4
6,130 µM,B5
